The record followed here is WO2017179718A1 (dated 2017).

This assay addresses T1, human CD64 (human, UniProt P12314 16-374).
T1 construct: also called hCD64; FcγRIA
The assay is described as follows: flow cytometry on CHO-S-hCD64 and THP-1 cells.

T1 sequence (P12314 16-374 limits assumed): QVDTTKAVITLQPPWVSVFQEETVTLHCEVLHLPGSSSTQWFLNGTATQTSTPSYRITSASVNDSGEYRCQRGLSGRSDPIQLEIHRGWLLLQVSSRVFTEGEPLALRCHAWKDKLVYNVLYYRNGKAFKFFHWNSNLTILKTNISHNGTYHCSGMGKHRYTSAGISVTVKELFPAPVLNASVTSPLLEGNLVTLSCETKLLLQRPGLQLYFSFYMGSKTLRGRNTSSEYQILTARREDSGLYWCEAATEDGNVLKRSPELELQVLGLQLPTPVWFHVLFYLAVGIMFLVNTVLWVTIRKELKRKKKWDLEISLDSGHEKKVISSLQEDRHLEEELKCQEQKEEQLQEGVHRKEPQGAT

B1: m22-AF647 antibody (antibody, human IgG4, V domains shown)
VH: QVQLVESGGGVVQPGRSLRLSCSSSGFIFSDNYMYWVRQAPGKGLEWVATISDGGSYTYYPDSVKGRFTISRDNSKNTLFLQMDSLRPEDTGVYFCARGYYRYEGAMDYWGQGTPVTVSS
VL: DIQLTQSPSSLSASVGDRVTITCKSSQSVLYSSNQKNYLAWYQQKPGKAPKLLIYWASTRESGVPSRFSGSGSGTDFTFTISSLQPEDIATYYCHQYLSSWTFGQGTKLEIK
modifications: Alexa Fluor 647 label on the antibody (sites not given)
notes: kappa) fluorescently labelled with Alexa Fluor 647
Consider B1, for which the binding result is on record as “binds”.
